The text below walks through data of patent US10640563B2, “Anti-B7-H3 antibodies and antibody drug conjugates” (AbbVie Inc., priority 2016, dated 2020).

The subject of data set [1] is HCC38 cell line. Briefly: Cell cytotoxicity of ADCs in HCC38 cell line. Type of data set: cell-based. The note with it: CZ conjugates. Here is the method:
The humanization of chAb18 generated 10 variants (described above in Table 9) that retained binding to human and cyno B7-H3 as assessed by FACS (the method of which is described above in Example 6). These variants were further characterized for binding by SPR and were successfully conjugated to the Bcl-xL inhibitor synthon CZ using Method A (described above) and assessed for cell cytotoxicity as described in Example 7. The parental chAb18 from which the variants were derived was also tested as a comparator. All humanized variants had similar binding properties as assessed by biacore, and retained binding activity to cell surface expressed as conjugates with the CZ synthon. The cytotoxicity of all of the variants as CZ synthons were similar to the chAb18 from which they were derived.
Humanized chAb18 variants were conjugated to the CZ synthon and tested for cytotoxicity in HCC38 cell line.

In data set [2] the test system is HCC38 (breast cancer) cells. Briefly: In vitro cell viability assay (CellTiter-Glo), HCC38. The note with it: ADC with synthon CZ; HCC38 breast cancer cells; viability after 5 days; read-out: Cytotoxicity (HCC38 cell line IC50nM). The format is cell-based, human. Here is the method:
(§1) Nine anti-B7-H3 chimeric antibodies were conjugated to the Bcl-xL inhibiting (Bcl-xLi) synthon CZ (Example 2.1) using conjugation Method A described below. The resulting ADCs (anti-B7-H3 antibodies conjugated to synthon CZ) were tested for binding to cell surface human B7-H3 by FACS (as described in Example 6) and for cell cytotoxicity in cell lines expressing B7-H3. […] Table 6 provides cell surface binding and cytotoxicity activity of anti-B7-H3 chimera ADCs against breast cancer cell HCC38 expressing human B7-H3.
The tumor cell lines HCC38 (breast cancer), NCI-H1650 (NSCLC) and NCI-H847 (small cell lung cancer cell line) were obtained from American Type Culture Collection (ATCC). Cells were grown in 96-well culture plates using recommended growth media overnight at a density of 5×10^3 (HCC38) or 20×10^3 (NCI-H847) or 40×10^3 (NCI-H1650) per well. The following day, treatments were added in fresh media to triplicate wells. Cellular viability was determined 5 days later using the CellTiter-Glo Luminescent Cell Viability Assay kit (Promega), as directed in the manufacturer's protocol. Cell viability was assessed as percentage of control untreated cells.
For orientation: ATP-based viability assays read luminescence as a measure of living cells.

Data set [3] is described as follows: Size exclusion chromatography, % aggregate of ADC. The format is physicochemical. The note with it: ADC with synthon CZ, conjugation Method A. The method, then: The DAR and percentage aggregation of ADCs synthesized were determined by LC-MS and size exclusion chromatography (SEC), respectively.
Size exclusion chromatography was performed using a Shodex KW802.5 column in 0.2 M potassium phosphate pH 6.2 with 0.25 mM potassium chloride and 15% IPA at a flow rate of 0.75 ml/min. The peak area absorbance at 280 nm was determined for each of the high molecular weight and monomeric eluents by integration of the area under the curve. The % aggregate fraction of the conjugate sample was determined by dividing the peak area absorbance at 280 nm for the high molecular weight eluent by the sum of the peak area absorbances at […] of the high molecular weight and monomeric eluents multiplied by 100%.

The nature of data set [4]: Observation after conjugation to synthon (Method A). Type of data set: physicochemical. Conditions: after conjugation to Bcl-xLi synthon CZ. The method, then:
as §1
A solution of Bond-Breaker™ tris(2-carboxyethyl)phosphine (TCEP) solution (10 mM, 0.017 mL) was added to a solution of antibody (10 mg/mL, 1 mL) preheated to 37° C. The reaction mixture was kept at 37° C. for 1 hour. The solution of reduced antibody was added to a solution of synthon (3.3 mM, 0.160 mL in DMSO) and gently mixed for 30 minutes. The reaction solution was loaded onto a desalting column (PD10, washed with Dulbecco's phosphate-buffered saline [DPBS] 3× before use), followed by DPBS (3 mL). The purified ADC solution was filtered through a 0.2 micron, low protein-binding 13 mm syringe-filter and stored at 4° C.

The test system of data set [5] is NCI-H146 xenograft. The data set is described as follows: NCI-H146 small cell lung cancer xenograft efficacy. The format is in vivo, mouse. The note with it: NCI-H146 xenograft in SCID/bg mice; 10 mg/kg IP QDx1. The method, then: Antibody MSL109 (an IgG1 antibody that binds to cytomegalovirus (CMV) glycoprotein H) was used as a control, both as a naked antibody and as an ADC (conjugated to the same synthon (CZ) as the chAb3, chAb18, and chAb13 antibodies). MSL109 is an isotype matched non-targeting control. The methods of this xenograft assay are described below.
NCI-H146 cells, NCI-1650 cells, and EBC-1 cells were obtained from the American Type Culture Collection (ATCC, Manassas, Va.). The cells were cultured as monolayers in RPMI-1640 (NCI-H146, NCI-H1650) or MEM (EBC-1) culture media (Invitrogen, Carlsbad, Calif.) that was supplemented with 10% Fetal Bovine Serum (FBS, Hyclone, Logan, Utah). To generate xenografts, 5×10^6 viable cells were inoculated subcutaneously into the right flank of immune deficient female SCID/bg mice (Charles River Laboratories, Wilmington, Mass.) respectively. The injection volume was 0.2 mL and composed of a 1:1 mixture of S MEM and Matrigel (BD, Franklin Lakes, N.J.). Tumors were size matched at approximately 200 mm^3. Antibodies and conjugates were formulated in 0.9% sodium chloride for injection and injected intraperitoneally. […] Therapy began within 24 hours after size matching of the tumors. Mice weighed approximately 22 g at the onset of therapy. Tumor volume was estimated two to three times weekly. Measurements of the length (L) and width (W) of the tumor were taken via electronic caliper and the volume was calculated according to the following equation: V=L×W^2/2. Mice were euthanized when tumor volume reached 3,000 mm3 or skin ulcerations occurred. Eight mice were housed per cage. Food and water were available ad libitum. Mice were acclimated to the animal facilities for a period of at least one week prior to commencement of experiments. Animals were tested in the light phase of a 12-hour light: 12-hour dark schedule (lights on at 06:00 hours). As described above, human IgG control antibody (MSL109) was used as a negative control agent.
To refer to efficacy of therapeutic agents, parameters of amplitude (TGImax), durability (TGD) of therapeutic response are used. TGImax is the maximum tumor growth inhibition during the experiment. Tumor growth inhibition is calculated by 100*(1−Tv/Cv) where Tv and Cv are the mean tumor volumes of the treated and control groups, respectively. TGD or tumor growth delay is the extended time of a treated tumor needed to reach a volume of 1 cm^3 relative to the control group. TGD is calculated by 100*(Tt/Ct−1) where Tt and Ct are the median time periods to reach 1 cm^3 of the treated and control groups, respectively.

B1: chAb18-CZ (conjugate)
VH: QVQLQQSAAELARPGASVKMSCKASGYSFTSYTIHWVKQRPGQGLEWIGYINPNSRNTDYNQKFKDETTLTADRSSSTAYMQLISLTSEDSAVYYCARYSGSTPYWYFDVWGAGTTVTVSS
VL: QIVLTQSPAILSASPGEKVTMTCRASSSVSYMNWYQQKPGSSPKPWIYATSNLASGVPARFSVSVSGTSHSLTISRVEAEDAATYYCQQWSSNPLTFGAGTKLELK
B1 gave an IC50 in data set [1] (Table 10) of 0.28 nM. For the same molecule, the IC50 in data set [2] was found to be 0.28 nM. Moreover, in data set [3], the “% agg by SEC” value was 4.3%. Besides, in data set [4], the Conjugation observation result is recorded as “Clear”. In data set [5], the “TGD (%)” value is 100% and the “TGImax (%)” value stood at 90%.

B2: chAb3-CZ (conjugate)
VH: QVQLQQPGAELVKPGASVKLSCKASGYTFSSYWMHWVKQRPGQGLEWIGLIHPDSGSTNYNEMFKNKATLTVDRSSSTAYVQLSSLTSEDSAVYFCAGGGRLYFDYWGQGTTLTVSS
VL: DVVMTQTPLSLPVSLGDQASISCRSSQSLVHSNGDTYLRWYLQKPGQSPKLLIYKVSNRFSGVPDRFSGSGSGTDFTLKITRVEAEDLGVYFCSQSTHVPYTFGGGTKLEIK
modifications: drug conjugate; Synthetic chAb3 VH amino acid sequence; Synthetic chAb3 VL amino acid sequence
B2 displayed an IC50 in data set [1] (Table 14) of 0.17 nM. Besides, in data set [2], the IC50 amounted to 0.17 nM. In data set [3], the “% agg by SEC” value was 6.3%. Besides, in data set [4], the Conjugation observation entry is on record as “Clear”. For the same molecule, in data set [5], the “TGD (%)” value is listed as 109% and the “TGImax (%)” value was found to be 87%.
